Experimental data from patent US20090191186A1 (KALOBIOS PHARMACEUTICALS, published 2009).

Target: PcrV of the Type III secretion system on P. aeruginosa strain PA103 (Pseudomonas aeruginosa strain PA103)
Test: cell-based or functional assay

Binder	IC50 (nM), TTSS-dependent cytotoxicity assay (PA103 killing of P3-X63-Ag8 cells)
Fab SEQ ID NOs: 13, 4 (Fab, V domains shown) VH: QVQLVESGGGVVQPGRSLRLSCAASGFTFSSYPLHWVRQAPGKGLEWVSFISYDGSEKYYASSVKGRFTISRDNSENTLYLQMNSLRPEDTAVYYCARNRGDIYYDFTYAMDIWGQGTMVTVSS VL: DIQMTQSPSSLSASVGDRVTITCRASQSISRWVAWYQQRPGKAPNLLIYDASSLKSGVPSRFSGSGSGTEFTLTISSLQPEDIATYYCQQFWSTPYTFGQGTKLEIK	20 nM
Fab SEQ ID NOs: 13, 37 (Fab, V domains shown) VH: QVQLVESGGGVVQPGRSLRLSCAASGFTFSSYPLHWVRQAPGKGLEWVSFISYDGSEKYYASSVKGRFTISRDNSENTLYLQMNSLRPEDTAVYYCARNRGDIYYDFTYAMDIWGQGTMVTVSS VL: DIQMTQSPSSLSASVGDRVTITCRASQSISRWVAWYQQRPGKAPNLLIYDASSLKSGVPSRFSGSGSGTEFTLTISSLQPEDIATYYCQQFWGTPYTFGQGTKLEIK	12 nM
Fab SEQ ID NOs: 5, 6 (Fab, V domains shown) VH: QVQLVESGGGVVQPGRSLRLSCTASGFSFSSYGMHWVRQAPGKGLEWVAVIWYNGKEISYADSVKGRFTVSRDNPKNTLYLQMSSLRTEDTAVYYCARNRGDIYYDFTYAMDIWGQGTMVTVSS VL: AIQLTQSPSFLSASVGDRVTITCRASQGISTYLAWYQQKPGKAPKLLIYAASSLQSGVPSRFSGSGSGTDFTLTISSLQPEDVATYYCQQFWSTPYTFGQGTKLEIK	50.2 nM
Fab SEQ ID NOs: 13, 10 (Fab, V domains shown) VH: QVQLVESGGGVVQPGRSLRLSCAASGFTFSSYPLHWVRQAPGKGLEWVSFISYDGSEKYYASSVKGRFTISRDNSENTLYLQMNSLRPEDTAVYYCARNRGDIYYDFTYAMDIWGQGTMVTVSS VL: DIQLTQSPSFLSASVGDRVTITCRASQGISTYLAWYQQKPGKAPKLLIYDASALQSGVPSRFSGSGSGTEFTLTISSLQPEDVATYYCQQFWSTPYTFGQGTKLEIK	25.5 nM
Fab SEQ ID NOs 3, 4 (Fab, V domains shown) VH: QVQLVESGGGVVQPGGSLRLSCAASGFTFSTAGMHWVRQAPGKGLEWVAVIWYNGKEISYADSVKGRFTVSRDNPKNTLYLQMSSLRTEDTAVYYCARNRGDIYYDFTYAMDIWGQGTMVTVSS VL: DIQMTQSPSSLSASVGDRVTITCRASQSISRWVAWYQQRPGKAPNLLIYDASSLKSGVPSRFSGSGSGTEFTLTISSLQPEDIATYYCQQFWSTPYTFGQGTKLEIK	35.1 nM
Fab SEQ ID NOs. 24, 26 (Fab, V domains shown) VH: EVQLVESGGGVVQPGRSLRLSCAASGFTFSNYPMHWVRQAPGKGLEWVAVISYDGSEKWYADSVKGRFTISRDNSKNTLYLEMNSLRPEDTAVYYCARNRGDIYYDFTYAMDIWGQGTTVTVSS VL: DIQLTQSPSTLSASVGDSVTITCRASEGVDRWLAWYQQKPGRAPKLLIYDASTLQSGVPSRFSGSGSGTEFSLTISSLQPDDVATYYCQHFWGTPYTFGQGTKLEIK	25.5 nM
Fab SEQ ID NOs. 35. 36 (Fab, V domains shown) VH: EVQLVESGGGVVQPGRSLRLSCAASGFTFSNYPMHWVRQAPGKGLEWVAVISYDGSEKWYADSVKGRFTISRDNSKNTLYLEMNSLRPEDTAVYYCARNRGDIYYDFTYAMDYWGQGTTVTVSS VL: DIQLTQSPSTLSASVGDSVTITCRASEGVDRWLAWYQQKPGRAPKLLIYDASTLQSGVPSRFSGSGSGTEFSLTISSLQPDDVATYYCQHFWSTPYTFGQGTKLEIK	61.4 nM
